B1: SCT-Pa17 (antibody, mouse IgG1, kappa, V domains shown)
VH: QVQLQQPGAELVKPGASVKLSCKASGYAFTSSWINWVKRRPGQGLEWIGNVYPRSSSPNYNEKFKGKATLTVDTSSSTAYMQLSSLTSDDSAVYFCARGYGSYWYFDVWGAGTSVTVSS
VL: DIQMTQSSSSFSVSLGDRVTITCKASEDIYNRLAWYQQKPGNAPRLLISGATTLETGVPSRFSGSGSGKDYALSITSLQTEDVSTYYCQEYWSLSPTFGGGTKLEIKR
B2: SCT-Pa09 (antibody, mouse IgG1, kappa, V domains shown)
VH: QVQLQQPGAELVKPGTSVRLSCQASGYTFTSSWIHWVKQRTGQGLEWIGEISLTNGDINYNEKFTSKATLTVDKSSSTAYMQLSSLTSEDSAVYYCTIIPDGYSLYWYFDVWGAGTTVTVSS
VL: QIVLSQSPPILSASPGARVTMTCRASSSVNYMHWYQQKPGSSPKPWIYATSNLASGVPVRFSGSGSGTSYSLTISRVEAEDAATYYCQQWSSNPPTFGGGTKLEIKR
B3: SCT-Pa16 (antibody, mouse IgG1, kappa, V domains shown)
VH: QVQLQQPGTELVKPGASVKLSCKASGYTFTSYWMHWVKQRPGQGLEWIGSVNPSNGGANYNEKFKNKATLTVDKSSSTAYMQLSSLTSEDSAVYYCARRNGFPYYFDYWGQGTTLTVSS
VL: DIVMTQSQKFVSTSVGDRVSVTCKASQNVGTNVVWYQQKPGQSPKPLIYSASYRYSGVPDRFTGSGSGTDFTLTISNVQSEDLADYFCHQYNSSPLTFGVGTKLELKR
B4: SCT-Pa07 (antibody, mouse IgG1, kappa, V domains shown)
VH: EVQLQQSGPELVKPGDSVKMSCKASGYTFTDYYMDWVKQSHGKSLEWIGYIYTNNGDTNYNQKFKGKATLTVDKSSSTAYMELHSLTSEDSAVYYCASLYYSNFFDSWGQGTTLTVSS
VL: ENVLTQSPAIMSATLGEKVTVSCRARSNVKYMYWYQQKSGASPKLLIYYTSNLASGVPARFSGSGSGTSYSLTISSVEAEDAATYYCQQFTSSPFTFGSGTKLEIKR
B5: SCT-Pa14 (antibody, mouse IgG1, kappa, V domains shown)
VH: EVQLQQSGAELVSPGASVKLSCTASGFNIKDDYMHWVKQRPEQGLEWIGRIDPANGNTKYAPKFQDKATITADTSSNTAYLQLSSLTSEDTAVYYCFYSFYIPYTMDFWGQGTSVTVSS
VL: ENVLTQSPAIMSATLGEKVTMSCRASSNVKYMYWYQQKSGASPKLWIYYTSNLTSGVPARFSGSGSGTSYSLTISSVEAEDAATYYCQQFTSSPYTFGSGTKLEIKR
B6: SCT-Pa15 (antibody, mouse IgG1, kappa, V domains shown)
VH: QVQVKQSGPGLVQPSQSLSITCTVSGFSSTSYAIHWVRQSPGKGLEWLGVIWSGGTTDYNAAFISRLSFSKDNSKSQLFFKMNSLQADDTAMYYCARGNYYGMDYWGQGTSVTVSS
VL: DIVVTQSPASLAVSLGQRATISCRASESIDYDGDSYVNWYQQKPGQPPNLLIYAASNLESGIPARFSGGGSGTDFTLTIHPVEEEDAATYYCLQSYETPWTFGGGTKLEIKR
B7: SCT-Pa08 (antibody, mouse IgG1, kappa, V domains shown)
VH: QVQLHQSGAELVKPGASVKLSCKASGYTFTEYSIHWVKQRSGQDLEWIGWFNPGTGSIKYNEKFKDKATLTADKSSSTVYMELSRLTSEDSAVYFCARHGGRWVIQWNFDVWGTGTTVTVSS
VL: DIVMSQSPSSLAVSVGEKVTMSCKSSQNLLYSSNQKNFLAWYQQRPGQSPKLLIYWASTRESGVPDRFTGSGTGTDFTLTISSVKAEDLAVYYCQQYYRYPFTFGSGTKLEIKR
B8: SCT-Pa01 (antibody, mouse IgG1, kappa, V domains shown)
VH: QVTLKESGPGILQPSQTLSLTCSFDGFSLSTFGMGVGWIRQPSGRGLEWLAHIWWDDDKNYKPALKSRLTISKDTSKNQVFLKIANVDTADTATYYCTRMREDSSDYVYYIMDYWGQGTSVIVAS
VL: QIVLTQSPSIMSASPGEKVTISCSASSSVSYMYWYQQKPGSSPRPWIYRTSNLASGVPARFSGSGSGTSYSLTITSMEAEDAATYYCQLYHSYPPTWTFGGGTKLEIKR
B9: SCT-Pa03 (antibody, mouse IgG1, kappa, V domains shown)
VH: QVQLKQSGAELVRPGASVKLSCKASGYTFTDYYINWVKQRPGQGLEWIARIYPGNNYAYYDEKFKGKATLTAEKSSSTAYMQLSSLTSEDSAVYFCAKDDGYRFAYWGQGTLVTVSA
VL: DIQMTQSSSYLSVSLGGRVTITCKASDHINNWLAWYQQKPGNAPRLLISGATSLETGVPSRFSGSGSGKDYTLSITSLQTEDVATYYCQQYWSTPPTFGGGTKLEIKR
B10: SCT-Pa10 (antibody, mouse IgG1, kappa, V domains shown)
VH: QVQLQQSGPELVKPGASVKISCKASGYAFSTSWMNWMKQRPGKGLEWIGRIYPGDGETNYNGKFKGKATLTADKSSSTAYMQLSSLTSDDSAVYFCARGANGDYLFYLDYWGQGTTLTVSS
VL: DIQMTQTTSSLSASLGDRVTISCSASQDISDFLNWYQQKPDGTVKLLIYYTSSLHSGVPSRFSGSGSGTDYSLTINNLEPEDIATYYCQQYSKLPYTFGGGTKLEIRR
B11: SCT-Pa12 (antibody, mouse IgG1, kappa, V domains shown)
VH: QVQLQQSGAELARPGASVKLSCKASGYSFTSYGISWVKQRTGQGLEWIGDIYPRSGNTDYNEKFKGKATLTADKSSSTANMQLSSLTSEDSAIYFCARSGDGYLYAMDYWGQGTSVTVSS
VL: DIQMTQTTSSLSASLGDRVTISCRASQDISNYLNWYQQKPDGTVKLLIYYTSRLHSGVPSRFSGSGSGTDYSLTISNLEPEDIAPYYCQQYSKLPYTFGSGTKLEIKR
B12: SCT-Pa18 (antibody, mouse IgG1, kappa, V domains shown)
VH: QVQLQQPGAELVKPGASVKLSCKASGYTFTSYWMQWVKQRPGQGLEWIGEIAPSDSYTNYNQKFKGKATLTVDTSSSTAYMQLSSLTSEDSAVYYCAGGDYYGYDVKTWFAYWGQGTLVTVSA
VL: DIQMTQTTSSLSASLGDRVTISCSASQDISNYLNWYQQKPDGTVKLLIYYTSSLHSGVPSRFSGSGSGTGYSLTISNLEPEDIATYYCQQYSKLPYTFGGGTKLEIKR
B13: SCT-Pa06 (antibody, mouse IgG1, kappa, V domains shown)
VH: QVTLKESGPGILQPSQTLSLTCSFSGFSLSTYGMGVGWIRQPSGKGLEWLANIWWNDDKNYNSALKSRLTISKDTSNNQLFLRISSVDTADTATYFCAQIPAYYSNSWFAYWGHGTLVTVSA
VL: ENVLTQSPAIMAASPGEKVTMTCSASSSVSSGNFHWYQQKPGTSPKLWIYRTSNLASGVPARFSGSGSGTSYSLTISSMEAEDAATYYCQQWSGYPYTFGSGTKLKIKR
B14: SCT-Pa11 (antibody, mouse IgG1, kappa, V domains shown)
VH: EVQLQQSGPELVKPGASVKMSCKASGYTFTSYVIHWVKQKPGQGLEWIGYINPYNDGTEYNEKFKGKATLTSDKSSSTAYMELSSLTSEDSAVYYCSRDDYNNRFAYWGPGTLVTVSA
VL: DIQMTQSPASLSASVGETVTITCRPSENIYSYLAWYQQKQGKSPQLLVYNAKTLVEGVPSRFSGSGSGTQFSLKINSVQPEDCGSYYCLHHFGTPWTFGGGTILEIKR
B15: SCT-Pa20 (antibody, mouse IgG1, kappa, V domains shown)
VH: QVQLQQPGAELVKPGASVKLSCKASGYTFTDYWINWVKQRPGQGLEWIGNIYPGSSDTNYNEKFKRKATLTVDTSSSTAYMQLSSLTSDDSAVYYCARRPLFHAMDYWGQGTSVTVSS
VL: DIVLTQSPASLAVTLGQRATISCKASQSINYNGDNYMHWFQQKPGQPTKLLIYTASNLESGVPDRFSGSGSGTDFTLNIHPVEEEDAATYYCQQSKEFPWTFGGGTKLEIKR
B16: SCT-Pa05 (antibody, mouse IgG1, kappa, V domains shown)
VH: EVQLQQSGAELVKPGASVKLSCTTSGFNIKDYYFHWVKQRTEQGLEWIGRIDPEDGETEYAPKFRDKATITADTSSNTAYLQLSSLTSEDTAIYYCARSLYYWGQGTTLTVSS
VL: DIVMTQSPSSLSVWAGEKVTMSCKSSQSLLNSGDQKNYLTWYQQKPGQSPKLLIYETSTRDYGVPDRFTGSGSGADFTLTISSVQAEDLAVYYCLNDLTYPLTFGAGTKLELKR
B17: SCT-Pa04 (antibody, mouse IgG1, kappa, V domains shown)
VH: EVQLQQSGPELVKPGASVKMSCKASGYSFTSYVMHWVKQKPGQGLEWIGYINPYNDGTKYNEKFKGKATLTSDKSSSTAFMDLSSLTSDDSAVYYCSRDDYSNPPFAYWGQGTLVTVSA
VL: SIVMTQTPKFLLVSAGDRITITCKASQSVSNNVAWYQQKPGQSPTLLISYASNRFTGVPDRFTGSGYGTDFTFTISIVQAEDLAVYFCQQDYDSPYTFGGGTKLEIKR
B18: SCT-Pa19 (antibody, mouse IgG1, kappa, V domains shown)
VH: QVQLQQPGAELVRPGSSVKLSCKASGYTFTNYWMLWVKQRPMQGLEWIGSIDPSDSETHYNQKFKDKATLTVDKSSSTAYMRLGSLTSEDSAVYYCARDSYGWYFDVWGTGTTVTVSS
VL: DIVMTQSQKFMSTSVGDRVSVTCKASQNVGSNVAWYQQKSGQSPKALIYSASYRYSGVPDRFTGSGYGTDFTLTISNVQSEDLAEYFCQQYNNYPLTFGAGTKLELKR
B19: SCT-Pa02 (antibody, mouse IgG1, kappa, V domains shown)
VH: QMQLKQSGPGLVQPSQSLSITCTVSGFSLTSYGVHWVRQSPEKGLEWLGVIWSGGGTDYNAAFISRLSISKDNSKSQVFLKMSSLQTDDTAIYYCARGAYYSLDYWGQGTTLTVSS
VL: DIVLTQSPASLAVSLGQRATISCRASESVDYDGDNYMNWYQQKPGQSPKLLIYATSNLESRIPARFSGSGSGTEFTLNIHPVEEEDAATYYCLQSYDVPYTFGSGTKLEMKR

Molecular target: T1, Recombinant SARS-CoV-2 N protein His tagged (SARS-CoV-2, UniProt P0DTC9 1-419)
T1 construct: also called nucleocapsid (N) protein; recombinant HIS tagged SARS-CoV-2 N protein
Assay: BLI (Octet Red 96E), mAb on anti-mouse Fc biosensor, N protein in solution, global 1:1 fit

First: B1
Second: B2
The Kd of the first is 18-fold higher: 0.939 nM for the first, 0.0531 nM for the second. The second binds more tightly here.

Going from B3 to B4, the Kd falls from 1.49 nM to 0.188 nM (7.9-fold).

First: B5
Second: B6
The Kd of the first is 7.8-fold lower: 0.128 nM for the first, 0.994 nM for the second.

Going from B7 to B8, the Kd falls from 0.897 nM to 0.181 nM (5-fold). The second binds more tightly here.

Going from B9 to B10, the Kd falls from 2.78 nM to 0.335 nM (8.3-fold). The second binds more tightly here.

Compared with B11, B12 is 2.8-fold lower in Kd: 0.649 nM for the first, 0.228 nM for the second.

Going from B13 to B14, the Kd falls from 0.504 nM to 0.111 nM (4.5-fold).

First: B15
Second: B16
The Kd of the first is 54-fold lower: 0.00537 nM for the first, 0.289 nM for the second. The first binds more tightly here.

B17 and B18 are within 1.5-fold of each other in Kd: 0.0328 nM for the first, 0.0283 nM for the second.

B19 gave a Kd of 1 nM.

Going from B1 to B2, the koff falls from 0.000461 s⁻¹ to 2.67e-05 s⁻¹ (17-fold).

Compared with B3, B4 is 18-fold lower in koff: 0.00154 s⁻¹ for the first, 8.63e-05 s⁻¹ for the second.

Compared with B5, B6 is 12-fold higher in koff: 7.23e-05 s⁻¹ for the first, 0.000862 s⁻¹ for the second.

First: B7
Second: B8
The koff of the first is 9.6-fold higher: 0.000772 s⁻¹ for the first, 8.01e-05 s⁻¹ for the second.

Going from B9 to B10, the koff falls from 0.000597 s⁻¹ to 0.000247 s⁻¹ (2.4-fold).

Compared with B11, B12 is 2.2-fold lower in koff: 0.000278 s⁻¹ for the first, 0.000127 s⁻¹ for the second.

Going from B13 to B14, the koff falls from 0.00017 s⁻¹ to 5.75e-05 s⁻¹ (3-fold).

Going from B15 to B16, the koff rises from 3.09e-06 s⁻¹ to 0.00018 s⁻¹ (58-fold).

B17 and B18 are within 1.5-fold of each other in koff: 1.64e-05 s⁻¹ for the first, 1.26e-05 s⁻¹ for the second.

With B19 the koff was 0.00073 s⁻¹.

B1 and B2 are within 1.5-fold of each other in kon: 491000 M⁻¹ s⁻¹ for the first, 503000 M⁻¹ s⁻¹ for the second.

Going from B3 to B4, the kon falls from 1.04e+06 M⁻¹ s⁻¹ to 458000 M⁻¹ s⁻¹ (2.3-fold).

Compared with B5, B6 is 1.5-fold higher in kon: 566000 M⁻¹ s⁻¹ for the first, 868000 M⁻¹ s⁻¹ for the second.

First: B7
Second: B8
The kon of the first is 1.9-fold higher: 860000 M⁻¹ s⁻¹ for the first, 442000 M⁻¹ s⁻¹ for the second.

Going from B9 to B10, the kon rises from 215000 M⁻¹ s⁻¹ to 738000 M⁻¹ s⁻¹ (3.4-fold).

B11 and B12 are within 1.5-fold of each other in kon: 428000 M⁻¹ s⁻¹ for the first, 557000 M⁻¹ s⁻¹ for the second.

Compared with B13, B14 is 1.5-fold higher in kon: 337000 M⁻¹ s⁻¹ for the first, 517000 M⁻¹ s⁻¹ for the second.

B15 and B16 are within 1.5-fold of each other in kon: 576000 M⁻¹ s⁻¹ for the first, 624000 M⁻¹ s⁻¹ for the second.

B17 and B18 are within 1.5-fold of each other in kon: 498000 M⁻¹ s⁻¹ for the first, 444000 M⁻¹ s⁻¹ for the second.

For B19, the kon was 730000 M⁻¹ s⁻¹.

— patent US20240059762A1 (SINGLE CELL TECHNOLOGY, published 2024)
